{
  "source": "paper PMC11931385",
  "about": "“Structural and functional analysis of cancer-associated missense variants in the retinoblastoma protein pocket domain” (The Journal of Biological Chemistry, 2025)",
  "key": {"Rb^P M704V": {"target": "T1, Rb^P M704V (human, UniProt P06400 380-788, M704V)", "T1 construct": "also called variant 66", "T1 sequence (looked up)": "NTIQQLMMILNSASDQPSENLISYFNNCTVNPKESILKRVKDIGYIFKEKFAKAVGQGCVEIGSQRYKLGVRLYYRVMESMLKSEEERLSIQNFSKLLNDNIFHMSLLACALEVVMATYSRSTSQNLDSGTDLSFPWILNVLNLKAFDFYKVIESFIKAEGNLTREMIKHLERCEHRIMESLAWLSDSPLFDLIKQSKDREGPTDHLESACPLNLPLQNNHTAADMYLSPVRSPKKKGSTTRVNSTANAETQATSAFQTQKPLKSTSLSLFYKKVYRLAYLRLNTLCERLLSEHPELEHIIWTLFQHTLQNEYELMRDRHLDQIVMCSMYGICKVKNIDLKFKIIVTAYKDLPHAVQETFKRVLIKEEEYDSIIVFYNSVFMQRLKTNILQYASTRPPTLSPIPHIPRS", "assay": "fluorescence polarisation; 25 °C after warming to 37 °C (7 min ramp, 2 min at 37 °C), 1 min on ice and 3 min at 25 °C; unlabeled Rb^P against 1.5 nM TMR-E2F1^TD or 7.5 nM TMR-E7^LxCxE; 25 mM Tris pH 8.0, 200 mM NaCl, 1 mM DTT, 0.1% Tween-20; apparent Kd", "settings": "both partners purified"}, "Rb^P S751Y": {"target": "T2, Rb^P S751Y (human, UniProt P06400 380-788, S751Y)", "T2 construct": "also called variant 72", "T2 sequence (looked up)": "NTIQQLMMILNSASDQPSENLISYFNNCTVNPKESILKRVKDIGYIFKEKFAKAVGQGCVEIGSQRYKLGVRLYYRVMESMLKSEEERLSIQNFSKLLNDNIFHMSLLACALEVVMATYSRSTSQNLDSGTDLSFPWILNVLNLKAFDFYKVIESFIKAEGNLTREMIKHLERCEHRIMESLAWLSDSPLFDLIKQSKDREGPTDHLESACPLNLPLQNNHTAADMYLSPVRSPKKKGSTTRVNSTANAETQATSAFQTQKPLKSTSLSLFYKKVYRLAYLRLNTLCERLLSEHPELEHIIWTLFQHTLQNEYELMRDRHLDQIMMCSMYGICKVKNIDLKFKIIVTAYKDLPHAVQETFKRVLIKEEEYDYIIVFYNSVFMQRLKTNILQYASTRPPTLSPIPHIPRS", "assay": "fluorescence polarisation; 25 °C after warming to 37 °C (7 min ramp, 2 min at 37 °C), 1 min on ice and 3 min at 25 °C; unlabeled Rb^P against 1.5 nM TMR-E2F1^TD or 7.5 nM TMR-E7^LxCxE; 25 mM Tris pH 8.0, 200 mM NaCl, 1 mM DTT, 0.1% Tween-20; apparent Kd", "settings": "both partners purified"}},
  "note": "No end group written: not given here. TMR = tetramethyl rhodamine dye",
  "data": [
    {"binder": "{TMR}-GEGIRDLFDCDFGDLTPLD (also called E2F^TD; source: synthetic peptide, bought: GenScript)", "note": "[TMR-E2F1^TD, peptide of the E2F1 transactivation domain]", "values": [
      {"measurement": "Kd", "setting": "Rb^P M704V", "result": 46, "unit": "nM"},
      {"measurement": "Kd", "setting": "Rb^P S751Y", "result": 28, "unit": "nM"}
    ]},
    {"binder": "DLYCYEQLN (also: TMR label, position not given here, source: synthetic peptide, bought: GenScript)", "note": "[TMR-E7^LxCxE, LxCxE peptide of the E7 oncoprotein from HPV]", "values": [
      {"measurement": "Kd", "setting": "Rb^P M704V", "result": 14, "unit": "nM"},
      {"measurement": "Kd", "setting": "Rb^P S751Y", "result": 119, "unit": "nM"}
    ]}
  ]
}
